Read-outs that look alike come from different tables or passages of the source.
How the values were obtained:
[1] = test system: PC-3-xenograft Balb/c nu/nu mice; experiment: Ex vivo biodistribution after SPECT/CT scanning; format: in vivo, mouse; settings: radioactivity, ~3 h p.i.
Experimental: (§1) Seven-week-old male Balb/c nu/nu-specific and opportunistic pathogen-free (SOPF) mice (Janvier Labs, Le Genest-Saint-Isle, France) were housed in individually ventilated cages, with 4 mice per cage. Upon arrival, mice were acclimated for 1 week, with access to food and water ad libitum. Mice were subcutaneously inoculated on the right shoulder with PC-3 cells (5 × 10^6 cells suspended in 100 µL of 1/3 Matrigel (Corning Inc., Corning, NY, USA) and 2/3 Hank’s balanced salt solution (Gibco). PC-3 xenografts were allowed to grow for 3 weeks. Tumor sizes were 391 ± 173 mm^3 at the start of the studies. All animal experiments were approved by the Animal Welfare Committee of the Erasmus MC and were conducted in agreement with institutional guidelines (license number: AVD101002017867, 28 September 2017).
(§2) To determine the biodistribution of the compounds after imaging (~3 h p.i.), blood was collected via cardiac puncture under isoflurane/O2 anesthesia, after which the mice were sacrificed. The tumor and organs of interest (prostate, pancreas, spleen, liver, GI tract (stomach, small intestine, cecum, large intestine), kidneys, lungs, heart, muscle, bone, and brain) were excised, washed in PBS and blotted dry. The stomach, intestines and cecum were emptied of their contents. The tumor was cut in half; one half was fresh-frozen for further analysis and the other half was collected for ex vivo optical imaging and radioactivity measurements. After imaging, the blood, tumor, and relevant organs were weighed and measured in a γ-counter. To determine the total injected radioactivity per animal, samples of the injected solutions were measured as well. The percentage of injected dose per gram (%ID/g) was determined for each tissue sample and corrected for both the injected volume and %ID present at the injection site (the tail). Because the low weight of the prostate limited accurate organ weight measurements, the average prostate weight of all animals was used.

[2] = Ex vivo biodistribution after SPECT/CT scanning; format: in vivo, mouse; settings: mouse, iv, ~3 h p.i.; for tissue to tissue ratio: male, Balb/c nu/nu, total radioactivity, radioactivity; for tissue uptake at 3 h: PC-3 xenograft mice, i.v.
Experimental: as §1, §2

[3] = Stability in PBS at 37 °C (iTLC); format: physicochemical; settings: intact labeled ligand after incubation at 37 °C in PBS, n = 1
Experimental: Stability in PBS was determined by incubating 20 µL of the labeled compounds (∼11 MBq) in PBS (80 µL) at 37 °C. Radiochemical purity was determined by iTLC at 30 min, 1 h, 2 h and 4 h. Stability in the serum was carried out by adding 70 µL of the labeled compound (∼35 MBq) to 330 µL of mouse serum (Merck, Haarlerbergweg, The Netherlands). The mixture was incubated at 37 °C. At different time points (30 min, 1 h, 2 h and 4 h), an aliquot of the mixture (50 µL) was added to 50 µL ACN. The vial was vortexed and centrifuged at 10,000 rpm for 20 min and the supernatant was analyzed by iTLC.

[4] = Ex vivo optical (fluorescence, IVIS) imaging of organs; format: in vivo, mouse; settings: male, Balb/c nu/nu, mouse, iv, ex vivo radiant efficiency
Experimental: as §1
Before gamma counter measurements, the tumor half, pancreas, kidneys, lungs, small intestine, large intestine, liver, muscle, and bone were placed in two petri dishes and ex vivo optical imaging was performed with the IVIS Spectrum system (Perkin Elmer, Waltham, MA, USA) using the following settings for all measurements: FOV 12.6 cm, medium binning, f2, 0.5 s exposure with an excitation/emission filter of 640 nm/680 nm. Living Image version 4.5.2 software (Perkin Elmer) was used to perform data analysis by drawing a region of interest around the organ/tissue to quantify the radiant efficiency {(photons/second/cm^2/steradian)/(μW/cm^2)}.

[5] = blocked with 150 nmol unlabeled NeoB, n = 1

CC(C)CC(CC(C)C)NC(=O)[C@H](Cc1c[nH]cn1)NC(=O)CNC(=O)[C@@H](NC(=O)[C@H](C)NC(=O)[C@H](Cc1c[nH]c2ccccc12)NC(=O)[C@H](CCC(N)=O)NC(=O)[C@@H](Cc1ccccc1)NC(=O)COCC(=O)Nc1ccc(CNC(=O)[C@H](CCCCNC(=O)CCOCCOCCOCCOCCNC(=O)OC2CCCC3C=NN=C(c4ccc(CNC(=O)CCCCC[N+]5=C(/C=C/C=C/C=C6N(C)c7ccc(S(=O)(=O)O)cc7C6(C)C)C(C)(C)c6cc(S(=O)(=O)[O-])ccc65)cc4)C3CC2)NC(=O)CN2CCN(CC(=O)O)CCN(CC(=O)O)CCN(CC(=O)O)CC2)cc1)C(C)C (some centres unmarked) [[^111In]In-12, metal not drawn]
Tumor-to-blood ratio [1, 5]: 0.37
Tumor-to-prostate ratio [1, 5]: 0.62
Tumor-to-prostate ratio ([1]; non-blocked, n = 3): 2.86 ± 1.58
tissue to tissue ratio ([2]; tumor and blood, non-blocked, n = 3, read-out: Tumor-to-blood ratio): 1.09 ± 0.15
tissue to tissue ratio ([2]; tumor and kidney, blocked with 150 nmol unlabeled NeoB, n = 1, read-out: Tumor-to-kidney ratio): 0.16
tissue to tissue ratio ([2]; tumor and kidney, non-blocked, n = 3, read-out: Tumor-to-kidney ratio): 0.34 ± 0.05
tissue to tissue ratio ([2]; tumor and liver, blocked with 150 nmol unlabeled NeoB, n = 1, read-out: Tumor-to-liver ratio): 0.14
tissue to tissue ratio ([2]; tumor and liver, non-blocked, n = 3, read-out: Tumor-to-liver ratio): 0.55 ± 0.04
tissue to tissue ratio ([2]; tumor and muscle, blocked with 150 nmol unlabeled NeoB, n = 1, read-out: Tumor-to-muscle ratio): 2.62
tissue to tissue ratio ([2]; tumor and muscle, non-blocked, n = 3, read-out: Tumor-to-muscle ratio): 9.04 ± 1.74
tissue to tissue ratio ([2]; tumor and pancreas, blocked with 150 nmol unlabeled NeoB, n = 1, read-out: Tumor-to-pancreas ratio): 2.16
tissue to tissue ratio ([2]; tumor and pancreas, non-blocked, n = 3, read-out: Tumor-to-pancreas ratio): 0.51 ± 0.03
tissue uptake at 3 h ([2]; blood, blocked with 150 nmol unlabeled NeoB, n = 1, read-out: Blood uptake): 7.31 %ID/g
tissue uptake at 3 h ([2]; blood, non-blocked, n = 3, read-out: Blood uptake): 7.83 ± 0.84 %ID/g
tissue uptake at 3 h ([2]; bone, blocked with 150 nmol unlabeled NeoB, n = 1, read-out: Bone uptake): 1.87 %ID/g
tissue uptake at 3 h ([2]; bone, non-blocked, n = 3, read-out: Bone uptake): 2.03 ± 0.89 %ID/g
tissue uptake at 3 h ([2]; brain, blocked with 150 nmol unlabeled NeoB, n = 1, read-out: Brain uptake): 0.2 %ID/g
tissue uptake at 3 h ([2]; brain, non-blocked, n = 3, read-out: Brain uptake): 0.2 ± 0.03 %ID/g
tissue uptake at 3 h ([2]; cecum, blocked with 150 nmol unlabeled NeoB, n = 1, read-out: Cecum uptake): 2.35 %ID/g
tissue uptake at 3 h ([2]; cecum, non-blocked, n = 3, read-out: Cecum uptake): 3.73 ± 0.4 %ID/g
tissue uptake at 3 h ([2]; heart, blocked with 150 nmol unlabeled NeoB, n = 1, read-out: Heart uptake): 2.24 %ID/g
tissue uptake at 3 h ([2]; heart, non-blocked, n = 3, read-out: Heart uptake): 2.39 ± 0.23 %ID/g
tissue uptake at 3 h ([2]; kidneys, blocked with 150 nmol unlabeled NeoB, n = 1, read-out: Kidneys uptake): 17.1 %ID/g
tissue uptake at 3 h ([2]; kidneys, non-blocked, n = 3, read-out: Kidneys uptake): 24.9 ± 2.78 %ID/g
tissue uptake at 3 h ([2]; large intestine, blocked with 150 nmol unlabeled NeoB, n = 1, read-out: Large intestine uptake): 2.06 %ID/g
tissue uptake at 3 h ([2]; large intestine, non-blocked, n = 3, read-out: Large intestine uptake): 3.88 ± 0.4 %ID/g
tissue uptake at 3 h ([2]; liver, blocked with 150 nmol unlabeled NeoB, n = 1, read-out: Liver uptake): 20 %ID/g
tissue uptake at 3 h ([2]; liver, non-blocked, n = 3, read-out: Liver uptake): 15.3 ± 0.43 %ID/g
tissue uptake at 3 h ([2]; lungs, blocked with 150 nmol unlabeled NeoB, n = 1, read-out: Lungs uptake): 16.1 %ID/g
tissue uptake at 3 h ([2]; lungs, non-blocked, n = 3, read-out: Lungs uptake): 6.51 ± 1.15 %ID/g
tissue uptake at 3 h ([2]; muscle, blocked with 150 nmol unlabeled NeoB, n = 1, read-out: Muscle uptake): 1.04 %ID/g
tissue uptake at 3 h ([2]; muscle, non-blocked, n = 3, read-out: Muscle uptake): 0.96 ± 0.16 %ID/g
tissue uptake at 3 h ([2]; pancreas, blocked with 150 nmol unlabeled NeoB, n = 1, read-out: Pancreas uptake): 1.26 %ID/g
tissue uptake at 3 h ([2]; pancreas, non-blocked, n = 3, read-out: Pancreas uptake): 16.6 ± 1.41 %ID/g
tissue uptake at 3 h ([2]; prostate, blocked with 150 nmol unlabeled NeoB, n = 1, read-out: Prostate uptake): 4.36 %ID/g
tissue uptake at 3 h ([2]; prostate, non-blocked, n = 3, read-out: Prostate uptake): 3.56 ± 1.62 %ID/g
tissue uptake at 3 h ([2]; small intestine, blocked with 150 nmol unlabeled NeoB, n = 1, read-out: Small intestine uptake): 1.45 %ID/g
tissue uptake at 3 h ([2]; small intestine, non-blocked, n = 3, read-out: Small intestine uptake): 4.4 ± 2.45 %ID/g
tissue uptake at 3 h ([2]; spleen, blocked with 150 nmol unlabeled NeoB, n = 1, read-out: Spleen uptake): 3.32 %ID/g
tissue uptake at 3 h ([2]; spleen, non-blocked, n = 3, read-out: Spleen uptake): 4.11 ± 0.94 %ID/g
tissue uptake at 3 h ([2]; stomach, blocked with 150 nmol unlabeled NeoB, n = 1, read-out: Stomach uptake): 3.12 %ID/g
tissue uptake at 3 h ([2]; stomach, non-blocked, n = 3, read-out: Stomach uptake): 3.22 ± 0.54 %ID/g
tissue uptake at 3 h ([2]; tumor, blocked with 150 nmol unlabeled NeoB, n = 1, read-out: Tumor uptake): 2.72 %ID/g
tissue uptake at 3 h ([2]; tumor, non-blocked, n = 3, read-out: Tumor uptake): 8.47 ± 0.46 %ID/g
Stability in PBS (%) 30 min ([3]; 30 min): 85.8%
Stability in PBS (%) 1 h ([3]; 1 h): 80.1%
Stability in PBS (%) 2 h ([3]; 2 h): 75.0%
Stability in PBS (%) 4 h ([3]; 4 h): 73.1%
tissue to tissue ratio ([4]; tumor and kidney, blocked with 150 nmol unlabeled NeoB, n = 1, read-out: Tumor-to-kidney ratio (fluorescence)): 0.31
tissue to tissue ratio ([4]; tumor and kidney, non-blocked, n = 3, read-out: Tumor-to-kidney ratio (fluorescence)): 0.47 ± 0.16
tissue to tissue ratio ([4]; tumor and liver, blocked with 150 nmol unlabeled NeoB, n = 1, read-out: Tumor-to-liver ratio (fluorescence)): 0.69
tissue to tissue ratio ([4]; tumor and liver, non-blocked, n = 3, read-out: Tumor-to-liver ratio (fluorescence)): 1.96 ± 0.47
tissue to tissue ratio ([4]; tumor and muscle, blocked with 150 nmol unlabeled NeoB, n = 1, read-out: Tumor-to-muscle ratio (fluorescence)): 2.21
tissue to tissue ratio ([4]; tumor and muscle, non-blocked, n = 3, read-out: Tumor-to-muscle ratio (fluorescence)): 5.69 ± 1.94
tissue to tissue ratio ([4]; tumor and pancreas, blocked with 150 nmol unlabeled NeoB, n = 1, read-out: Tumor-to-pancreas ratio (fluorescence)): 2.54
tissue to tissue ratio ([4]; tumor and pancreas, non-blocked, n = 3, read-out: Tumor-to-pancreas ratio (fluorescence)): 0.69 ± 0.22

Source: paper PMC8778164, “Towards Complete Tumor Resection: Novel Dual-Modality Probes for Improved Image-Guided Surgery of GRPR-Expressing Prostate Cancer” (Pharmaceutics, 2022)
